# Measurements as given in patent publication US20080044360A1 (COLLAGEN MEDICAL, published 2008).
# Bridge positions count the residues as written; N and C are the ends. Square brackets hold non-standard residues; d marks the D form. Primed or numbered codes have the meaning given here. Ends that are not written are not given here. Glu‑DTPA‑Gd = N-terminal Glu-DTPA-Gd chelate (gadolinium DTPA complex on glutamic acid); Glu‑DTPA‑Gd″ = N-terminal chelate: Glu-DTPA-Gd (glutamic acid–DTPA gadolinium chelate); Glu‑DTPA‑Gd(3) = N-terminal gadolinium chelate Glu-DTPA-Gd; PEG(2O) = not defined here
# B1: SEQ ID NO 162 (peptide)
# peptide: YHACYQAGCWI[dW]
# modifications: disulfide 4-9 (inferred); not fully specified (C-terminus); printed as YHACYQAGCWIw
# notes: cyclic, disulfide
# B2: SEQ ID NO 195 (peptide)
# peptide: WWGCRQGTGEHWSHCMWF
# modifications: disulfide 4-15 (inferred); not fully specified (N-terminus, C-terminus); also: Gd chelated by DTPA at both ends
# B3: SEQ ID NO 196 (peptide)
# peptide: WWTCHMTWSGQWDSCKWH-NH2
# modifications: disulfide 4-15 (inferred); not fully specified (N-terminus); also: Gd chelated by DTPA
# What was measured:
# [1] = molecular target: T1, human collagen type I, acid soluble, extracted from placenta (Sigma C7774) (human, UniProt P02452 162-1218; P08123 80-1119); test: dried collagen assay
# T1 construct: tissue extract, gelled and dried in wells; also called dried human collagen; h-Collagen
# T1 sequence (P02452 162-1218 limits assumed, chain 1 of 2): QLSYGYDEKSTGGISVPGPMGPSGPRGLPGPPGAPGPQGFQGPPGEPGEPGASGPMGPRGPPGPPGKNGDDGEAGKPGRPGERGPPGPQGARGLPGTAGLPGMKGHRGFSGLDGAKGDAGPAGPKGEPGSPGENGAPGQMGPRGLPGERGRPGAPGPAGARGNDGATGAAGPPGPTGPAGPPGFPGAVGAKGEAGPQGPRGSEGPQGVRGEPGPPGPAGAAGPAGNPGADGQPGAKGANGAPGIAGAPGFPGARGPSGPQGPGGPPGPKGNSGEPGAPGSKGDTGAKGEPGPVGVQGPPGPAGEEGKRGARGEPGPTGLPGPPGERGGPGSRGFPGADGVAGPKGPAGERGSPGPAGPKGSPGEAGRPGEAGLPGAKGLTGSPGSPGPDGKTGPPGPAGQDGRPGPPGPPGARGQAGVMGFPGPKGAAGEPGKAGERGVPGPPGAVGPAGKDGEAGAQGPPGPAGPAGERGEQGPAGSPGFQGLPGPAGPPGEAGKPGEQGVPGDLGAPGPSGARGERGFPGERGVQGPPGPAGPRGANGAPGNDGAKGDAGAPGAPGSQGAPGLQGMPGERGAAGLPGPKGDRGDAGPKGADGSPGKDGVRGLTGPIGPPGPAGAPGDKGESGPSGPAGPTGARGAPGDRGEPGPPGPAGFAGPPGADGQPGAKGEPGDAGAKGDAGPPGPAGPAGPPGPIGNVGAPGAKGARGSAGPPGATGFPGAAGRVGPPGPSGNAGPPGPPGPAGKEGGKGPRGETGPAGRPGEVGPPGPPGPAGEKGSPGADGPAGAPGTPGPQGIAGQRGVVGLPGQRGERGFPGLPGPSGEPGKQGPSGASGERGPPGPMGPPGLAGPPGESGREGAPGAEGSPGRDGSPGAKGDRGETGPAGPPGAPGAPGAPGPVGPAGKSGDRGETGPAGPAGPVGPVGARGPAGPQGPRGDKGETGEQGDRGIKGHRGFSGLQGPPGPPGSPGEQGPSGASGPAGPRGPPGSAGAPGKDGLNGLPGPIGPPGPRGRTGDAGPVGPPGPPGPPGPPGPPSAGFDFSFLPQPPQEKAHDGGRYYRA
# T1 sequence (P08123 80-1119 limits assumed, chain 2 of 2): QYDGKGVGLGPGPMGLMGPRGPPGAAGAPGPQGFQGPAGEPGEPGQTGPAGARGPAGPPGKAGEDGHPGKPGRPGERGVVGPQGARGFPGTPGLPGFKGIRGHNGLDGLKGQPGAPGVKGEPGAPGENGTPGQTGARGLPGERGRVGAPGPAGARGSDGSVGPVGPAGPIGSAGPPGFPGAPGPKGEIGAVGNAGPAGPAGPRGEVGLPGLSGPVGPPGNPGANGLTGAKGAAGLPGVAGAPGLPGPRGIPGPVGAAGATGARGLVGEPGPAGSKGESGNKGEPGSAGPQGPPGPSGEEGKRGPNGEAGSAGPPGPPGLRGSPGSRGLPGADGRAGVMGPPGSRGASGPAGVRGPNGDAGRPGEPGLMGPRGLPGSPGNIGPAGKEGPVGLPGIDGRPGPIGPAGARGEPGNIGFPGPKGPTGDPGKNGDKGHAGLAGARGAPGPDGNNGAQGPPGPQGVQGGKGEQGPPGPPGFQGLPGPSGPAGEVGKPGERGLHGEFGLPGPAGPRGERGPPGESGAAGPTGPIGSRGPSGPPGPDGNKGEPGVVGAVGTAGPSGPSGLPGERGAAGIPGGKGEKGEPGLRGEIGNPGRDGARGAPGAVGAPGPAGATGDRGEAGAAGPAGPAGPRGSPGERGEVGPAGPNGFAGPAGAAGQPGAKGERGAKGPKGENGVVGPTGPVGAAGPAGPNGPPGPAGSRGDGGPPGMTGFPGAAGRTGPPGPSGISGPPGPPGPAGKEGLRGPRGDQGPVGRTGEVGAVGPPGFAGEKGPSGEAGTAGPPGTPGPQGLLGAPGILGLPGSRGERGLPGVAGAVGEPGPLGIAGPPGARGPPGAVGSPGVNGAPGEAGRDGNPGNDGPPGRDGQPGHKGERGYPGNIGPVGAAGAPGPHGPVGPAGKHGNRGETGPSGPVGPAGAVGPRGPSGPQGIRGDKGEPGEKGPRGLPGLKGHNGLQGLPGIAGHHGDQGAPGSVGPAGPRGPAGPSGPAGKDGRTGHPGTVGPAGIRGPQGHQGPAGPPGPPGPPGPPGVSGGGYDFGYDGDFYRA
# Protocol: (§1) An additional 90 μL is reserved in a HPLC glass vial as a measure of the total concentration.
# [2] = molecular target: T2, rat collagen, acid soluble, type I, rat tail (Upstate 08-115) (rat, UniProt P02454 152-1207; P02466 86-1125); test: dried collagen assay
# T2 construct: tissue extract, gelled and dried in wells; also called dried rat collagen
# T2 sequence (P02454 152-1207, chain 1 of 2): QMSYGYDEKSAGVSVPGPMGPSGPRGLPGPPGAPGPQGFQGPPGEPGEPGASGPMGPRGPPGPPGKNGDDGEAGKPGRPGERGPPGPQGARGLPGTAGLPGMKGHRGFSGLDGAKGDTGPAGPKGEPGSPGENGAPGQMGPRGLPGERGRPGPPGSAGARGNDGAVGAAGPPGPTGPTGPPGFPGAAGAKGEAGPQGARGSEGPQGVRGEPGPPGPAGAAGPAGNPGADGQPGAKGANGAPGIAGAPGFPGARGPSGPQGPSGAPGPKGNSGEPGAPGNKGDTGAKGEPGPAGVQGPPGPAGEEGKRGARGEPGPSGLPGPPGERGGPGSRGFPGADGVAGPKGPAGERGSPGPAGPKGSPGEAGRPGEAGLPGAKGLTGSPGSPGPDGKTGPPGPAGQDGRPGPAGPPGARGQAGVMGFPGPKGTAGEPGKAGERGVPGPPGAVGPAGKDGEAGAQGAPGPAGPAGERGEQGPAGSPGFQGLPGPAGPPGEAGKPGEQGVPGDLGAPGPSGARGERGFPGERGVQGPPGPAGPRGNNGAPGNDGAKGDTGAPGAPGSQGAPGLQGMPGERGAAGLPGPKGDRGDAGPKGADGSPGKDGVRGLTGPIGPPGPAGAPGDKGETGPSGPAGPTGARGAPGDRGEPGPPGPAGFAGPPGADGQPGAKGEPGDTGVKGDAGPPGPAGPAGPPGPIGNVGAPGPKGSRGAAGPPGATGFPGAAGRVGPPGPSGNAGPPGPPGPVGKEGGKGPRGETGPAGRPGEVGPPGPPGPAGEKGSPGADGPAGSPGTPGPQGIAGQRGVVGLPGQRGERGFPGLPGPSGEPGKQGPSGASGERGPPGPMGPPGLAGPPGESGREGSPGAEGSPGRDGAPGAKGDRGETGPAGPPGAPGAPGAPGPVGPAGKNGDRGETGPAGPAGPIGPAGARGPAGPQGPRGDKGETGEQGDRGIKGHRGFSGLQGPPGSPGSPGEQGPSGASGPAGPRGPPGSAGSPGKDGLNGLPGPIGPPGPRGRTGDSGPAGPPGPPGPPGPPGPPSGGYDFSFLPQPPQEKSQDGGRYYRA
# T2 sequence (P02466 86-1125, chain 2 of 2): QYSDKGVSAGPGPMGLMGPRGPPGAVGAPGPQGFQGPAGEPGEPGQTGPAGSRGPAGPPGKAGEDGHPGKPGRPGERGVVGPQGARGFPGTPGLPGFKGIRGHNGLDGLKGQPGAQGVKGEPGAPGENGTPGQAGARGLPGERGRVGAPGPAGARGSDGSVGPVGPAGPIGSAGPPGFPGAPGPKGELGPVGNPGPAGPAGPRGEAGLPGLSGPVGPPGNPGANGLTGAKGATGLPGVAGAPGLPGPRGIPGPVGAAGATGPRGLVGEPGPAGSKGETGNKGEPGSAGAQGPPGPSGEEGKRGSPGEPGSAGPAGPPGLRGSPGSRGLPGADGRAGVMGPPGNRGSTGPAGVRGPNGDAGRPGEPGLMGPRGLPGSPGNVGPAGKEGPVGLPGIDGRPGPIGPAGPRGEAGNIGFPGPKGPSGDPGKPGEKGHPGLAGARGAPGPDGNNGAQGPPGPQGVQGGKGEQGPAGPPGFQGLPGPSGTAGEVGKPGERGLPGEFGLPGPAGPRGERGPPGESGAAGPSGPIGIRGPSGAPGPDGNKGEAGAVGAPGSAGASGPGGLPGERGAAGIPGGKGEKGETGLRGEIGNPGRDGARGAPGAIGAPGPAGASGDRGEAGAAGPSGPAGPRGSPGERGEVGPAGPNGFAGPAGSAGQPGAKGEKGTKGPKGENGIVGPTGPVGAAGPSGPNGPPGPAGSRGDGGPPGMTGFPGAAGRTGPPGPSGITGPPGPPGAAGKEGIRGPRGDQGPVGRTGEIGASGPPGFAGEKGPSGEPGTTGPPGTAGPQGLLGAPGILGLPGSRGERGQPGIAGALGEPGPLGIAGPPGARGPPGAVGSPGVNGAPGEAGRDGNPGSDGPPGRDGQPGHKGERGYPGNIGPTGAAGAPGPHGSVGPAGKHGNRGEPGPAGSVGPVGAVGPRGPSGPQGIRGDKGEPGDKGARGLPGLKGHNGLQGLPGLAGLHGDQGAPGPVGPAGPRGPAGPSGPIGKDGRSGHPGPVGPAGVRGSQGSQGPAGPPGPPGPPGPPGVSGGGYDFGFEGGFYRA
# Protocol: as §1
# [3] = molecular target: T1, human collagen type I, acid soluble, …; test: % binding to collagen I
# [4] = molecular target: T2, rat collagen, acid soluble, type I, rat …; test: % binding to collagen I
Binder,% bound [1],% bound [2],% bound [3],% bound [4]
B1,18%,14%,–,–
"{Glu‑DTPA‑Gd(3)}-PPQWHCTTRFPHHYCLYG-NH2 (disulfide 6-15 (inferred), N-terminal P-P linker) [Compound ID 1024]",–,–,70%,55%
"{Glu‑DTPA‑Gd}-GQWHCTTRFPHHYCLYG (disulfide 5-14 (inferred); not fully specified (C-terminus), N-terminal G linker) [Compound ID 1022]",–,–,36%,38%
"{Glu‑DTPA‑Gd″}-GGDWTCVGDHKTWKCNFH-NH2 (disulfide 6-15 (inferred), N-terminal G-G linker) [Compound ID 1023]",–,–,14%,12%
"{Glu‑DTPA‑Gd}-GQWTCSGDEYTWHCNYE (disulfide 5-14 (inferred); not fully specified (C-terminus), N-terminal G linker) [Compound ID 1021]",–,–,48%,13%
"{Glu‑DTPA‑Gd″-PEG(2O)}-GQWTCSGDEYTWHCNY[dE]-NH2 (disulfide 5-14 (inferred); reading uncertain, linker -PEG(2O)-G- on the N-terminus) [Compound ID 1026]",–,–,28%,–
{Glu‑DTPA‑Gd}-WWTCHMTWSGQWDSCKWH-NH2 (disulfide 4-15 (inferred)) [Compound ID 1020],–,–,60%,34%
B2,–,–,16%,9%
B3,–,–,60%,34%
